The text below walks through data of paper PMC3046058 (Molecular Biology of the Cell, 2011).

The assay concerns the target His/S-tagged OCRL1, full length, recombinant (human, UniProt Q01968 1-901). Nature of the assay: pull-down.

Chain of His/S-tagged OCRL1, full length, recombinant (Q01968 whole entry): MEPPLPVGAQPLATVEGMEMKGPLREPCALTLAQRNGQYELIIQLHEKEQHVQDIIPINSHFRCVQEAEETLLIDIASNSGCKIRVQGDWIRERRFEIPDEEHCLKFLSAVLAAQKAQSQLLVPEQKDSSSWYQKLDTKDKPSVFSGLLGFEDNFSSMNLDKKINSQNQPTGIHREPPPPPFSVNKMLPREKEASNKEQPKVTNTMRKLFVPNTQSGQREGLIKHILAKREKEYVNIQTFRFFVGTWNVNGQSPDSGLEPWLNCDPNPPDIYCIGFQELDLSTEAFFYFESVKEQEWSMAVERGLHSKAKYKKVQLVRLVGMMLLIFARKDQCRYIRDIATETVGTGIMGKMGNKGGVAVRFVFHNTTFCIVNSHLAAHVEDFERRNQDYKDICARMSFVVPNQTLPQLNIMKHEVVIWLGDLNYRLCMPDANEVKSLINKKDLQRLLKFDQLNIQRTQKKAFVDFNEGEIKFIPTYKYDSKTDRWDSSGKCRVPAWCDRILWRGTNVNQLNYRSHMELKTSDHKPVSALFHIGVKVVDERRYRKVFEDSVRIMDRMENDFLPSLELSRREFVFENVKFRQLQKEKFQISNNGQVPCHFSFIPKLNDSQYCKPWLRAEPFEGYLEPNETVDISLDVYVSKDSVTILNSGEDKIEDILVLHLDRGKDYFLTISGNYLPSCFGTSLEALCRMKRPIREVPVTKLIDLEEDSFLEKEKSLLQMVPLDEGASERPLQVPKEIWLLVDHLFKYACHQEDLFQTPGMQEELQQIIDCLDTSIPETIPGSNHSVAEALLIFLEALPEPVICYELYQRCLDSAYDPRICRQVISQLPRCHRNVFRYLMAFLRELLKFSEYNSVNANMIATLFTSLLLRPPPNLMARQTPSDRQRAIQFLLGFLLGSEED

Take SFQQRHESLRP [GST APPL1 (aa 403-413), minimal OCRL1 binding domain of APPL1]: the binding result is reported as “binds”.
